{"source": "patent US20200123239A1", "about": "(PROTHENA BIOSCIENCES, published 2020)", "key": {"[1]": {"target": "recombinant purified hTau-P301L (human) (UniProt P10636)", "sequence (P10636 other isoform, or with tags, fused parts or gaps P301L P301L)": "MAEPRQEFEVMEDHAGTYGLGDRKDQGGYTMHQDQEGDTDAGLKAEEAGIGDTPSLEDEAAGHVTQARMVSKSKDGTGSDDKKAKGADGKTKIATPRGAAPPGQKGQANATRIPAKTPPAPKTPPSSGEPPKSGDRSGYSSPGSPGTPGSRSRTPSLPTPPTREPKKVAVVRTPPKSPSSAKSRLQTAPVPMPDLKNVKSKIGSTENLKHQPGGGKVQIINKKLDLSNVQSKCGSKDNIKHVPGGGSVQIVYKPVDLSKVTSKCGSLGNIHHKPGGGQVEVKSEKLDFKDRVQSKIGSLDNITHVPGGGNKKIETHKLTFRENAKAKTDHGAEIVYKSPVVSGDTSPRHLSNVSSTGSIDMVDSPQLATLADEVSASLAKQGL", "experiment": "SPR (Biacore T200), antibody captured on anti-human or anti-mouse antibody, hTau-P301L as analyte"}, "[2]": {"target": "T1, Δ25-44 deletion mutant of tau (rTau) (human, UniProt P10636 1-758)", "T1 construct": "Deletion mutagenesis of rTau; Tested as clarified bacterial lysate on Western blots; also called A25-44", "T1 sequence (P10636 other isoform, or with tags, fused parts or gaps mutant)": "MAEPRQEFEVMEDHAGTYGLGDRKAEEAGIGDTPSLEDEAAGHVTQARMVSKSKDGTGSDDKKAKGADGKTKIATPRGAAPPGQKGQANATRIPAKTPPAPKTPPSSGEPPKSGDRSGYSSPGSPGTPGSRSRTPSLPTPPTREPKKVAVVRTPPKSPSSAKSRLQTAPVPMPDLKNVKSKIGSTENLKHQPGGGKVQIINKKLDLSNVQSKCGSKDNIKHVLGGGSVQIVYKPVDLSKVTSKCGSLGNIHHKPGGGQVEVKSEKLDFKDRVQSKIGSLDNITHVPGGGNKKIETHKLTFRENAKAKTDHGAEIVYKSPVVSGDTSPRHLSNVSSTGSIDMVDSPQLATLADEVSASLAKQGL", "experiment": "Western blot of bacterial lysates", "method": "(§1) To control for sample loading, Tau46, an antibody with specificity for the C-terminal region of tau (C-terminal epitope), was used to stain duplicate blots. Both antibodies were used at a concentration of 0.2 μg/mL. Images were captured using a Licor Odyssey fluorescent scanner. The following deletion mutants of tau were made and analyzed in this manner: Δ5-24, Δ23-32, Δ25-44, Δ30-39, and Δ37-46."}, "[3]": {"target": "T2, Δ30-39 deletion mutant of tau (rTau) (human, UniProt P10636 1-758)", "T2 construct": "Deletion mutagenesis of rTau; Tested as clarified bacterial lysate on Western blots; also called A30-39", "T2 sequence (P10636 other isoform, or with tags, fused parts or gaps mutant)": "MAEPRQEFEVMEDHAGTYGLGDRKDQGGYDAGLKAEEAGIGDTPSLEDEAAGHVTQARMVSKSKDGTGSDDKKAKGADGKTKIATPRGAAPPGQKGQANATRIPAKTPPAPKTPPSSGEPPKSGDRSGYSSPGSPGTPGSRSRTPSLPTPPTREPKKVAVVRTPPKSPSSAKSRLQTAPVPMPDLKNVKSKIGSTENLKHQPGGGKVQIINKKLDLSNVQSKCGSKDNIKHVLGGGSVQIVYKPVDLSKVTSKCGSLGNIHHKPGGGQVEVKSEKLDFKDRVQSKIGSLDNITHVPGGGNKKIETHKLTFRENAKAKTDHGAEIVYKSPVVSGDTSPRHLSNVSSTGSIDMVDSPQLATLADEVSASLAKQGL", "experiment": "Western blot of bacterial lysates", "method": "as §1"}, "[4]": {"target": "T3, Δ23-32 deletion mutant of tau (rTau) (human, UniProt P10636 1-758)", "T3 construct": "Deletion mutagenesis of rTau; Tested as clarified bacterial lysate on Western blots; also called A23-32", "T3 sequence (P10636 other isoform, or with tags, fused parts or gaps mutant)": "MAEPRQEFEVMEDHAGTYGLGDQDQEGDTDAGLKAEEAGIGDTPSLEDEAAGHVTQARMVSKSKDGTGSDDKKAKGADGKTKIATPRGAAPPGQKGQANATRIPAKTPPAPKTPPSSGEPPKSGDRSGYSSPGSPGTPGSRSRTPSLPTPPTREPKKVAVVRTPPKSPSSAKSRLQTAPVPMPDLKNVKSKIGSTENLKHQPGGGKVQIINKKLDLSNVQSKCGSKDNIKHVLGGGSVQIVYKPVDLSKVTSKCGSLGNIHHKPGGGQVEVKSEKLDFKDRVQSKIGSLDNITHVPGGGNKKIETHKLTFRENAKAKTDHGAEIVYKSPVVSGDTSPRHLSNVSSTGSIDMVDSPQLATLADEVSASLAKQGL", "experiment": "Western blot of bacterial lysates, 16B5 at 0.2 µg/mL", "method": "as §1"}, "[5]": {"target": "T4, human tau with 4 microtubule binding repeats and no N-terminal inserts, containing a P301L mutation (rTau) (human, UniProt P10636 2-758)", "T4 construct": "Expressed in E. coli and purified; also called full-length Tau; wild-type Tau (WT) on the blots", "T4 sequence (P10636 other isoform, or with tags, fused parts or gaps P301L P301L limits assumed)": "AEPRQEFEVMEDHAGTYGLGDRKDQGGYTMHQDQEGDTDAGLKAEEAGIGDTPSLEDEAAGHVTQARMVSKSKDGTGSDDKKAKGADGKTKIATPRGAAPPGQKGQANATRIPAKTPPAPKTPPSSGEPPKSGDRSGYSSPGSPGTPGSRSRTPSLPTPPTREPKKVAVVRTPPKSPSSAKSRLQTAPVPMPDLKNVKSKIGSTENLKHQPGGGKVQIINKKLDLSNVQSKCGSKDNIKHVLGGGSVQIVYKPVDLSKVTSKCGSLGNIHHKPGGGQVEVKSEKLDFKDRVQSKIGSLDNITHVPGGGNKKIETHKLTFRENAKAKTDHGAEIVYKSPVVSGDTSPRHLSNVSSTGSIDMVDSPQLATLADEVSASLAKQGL", "experiment": "Western blot of bacterial lysate, stained with 16B5 at 0.2 ug/mL", "method": "as §1"}, "[6]": {"target": "T5, Δ5-24 deletion mutant of tau (rTau) (human, UniProt P10636-6 1-383)", "T5 construct": "Deletion mutagenesis of rTau; Tested as clarified bacterial lysate on Western blots; also called A5-24", "T5 sequence (P10636 other isoform, or with tags, fused parts or gaps mutant)": "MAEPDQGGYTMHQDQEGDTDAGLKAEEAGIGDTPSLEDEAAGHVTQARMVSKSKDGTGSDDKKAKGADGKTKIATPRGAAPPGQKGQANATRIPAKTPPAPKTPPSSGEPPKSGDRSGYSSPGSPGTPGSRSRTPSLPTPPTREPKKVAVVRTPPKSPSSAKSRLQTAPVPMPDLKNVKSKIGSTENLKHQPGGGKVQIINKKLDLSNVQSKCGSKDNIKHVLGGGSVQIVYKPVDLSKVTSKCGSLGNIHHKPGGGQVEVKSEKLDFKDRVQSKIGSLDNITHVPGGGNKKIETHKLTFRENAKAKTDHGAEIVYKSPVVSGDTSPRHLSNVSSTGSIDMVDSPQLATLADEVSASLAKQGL", "experiment": "Western blot of bacterial lysate, stained with 16B5 at 0.2 ug/mL", "method": "as §1"}, "[7]": {"target": "T6, tau peptide fragment, residues 24-44 of SEQ ID NO: 1 (human)", "T6 construct": "Proteolytic fragment (trypsin digest) of rTau, precipitated with 16B5 and identified by MALDI-TOF/TOF", "T6 peptide": "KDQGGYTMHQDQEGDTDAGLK", "experiment": "precipitation of digest fragments with 16B5, HPLC, MALDI-TOF/TOF (trypsin digest)", "method": "(§2) The human tau sequence with 4 microtubule binding repeats and no N-terminal inserts, and containing a P301L mutation (rTau), was expressed in E. coli and purified. […] Enzymatic digests of 200 ug of tau were carried out with one of four different proteases: trypsin (which cleaves at the carboxyl end of arginine and lysine), chymotrypsin (which primarily cleaves at the carboxyl end of tyrosine, tryptophan, phenylalanine and leucine), LysC (which cleaves at the carboxyl end of lysine), or GluC (which cleaves after glutamate residues and rarely after aspartate residues). All proteases were obtained from Thermo Scientific, and digests were performed for 16 h at 37° C. […] Precipitates were thoroughly washed in PBS containing 300 mM NaCl and 0.5% NP-40, then eluted with 1M NaCl in 100 mM glycine, pH 2.8. Eluates were dried under vacuum and resuspended in 0.1% trifluoroacetic acid (TFA). […] Peak fractions were collected, dried and resuspended in distilled water. Peptide masses and identities were determined by MALDI-TOF/TOF."}, "[8]": {"target": "T7, tau peptide fragment, residues 25-44 of SEQ ID NO: 1 (human)", "T7 construct": "Proteolytic fragment (LysC and trypsin digests) of rTau, precipitated with 16B5 and identified by MALDI-TOF/TOF", "T7 peptide": "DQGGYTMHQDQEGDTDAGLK", "experiment": "precipitation of digest fragments with 16B5, HPLC, MALDI-TOF/TOF (LysC and trypsin digests)", "method": "as §2"}}, "data": [{"binder": "humanized 16B5 antibody, version H1L1 (antibody, V domains shown) VH: QVQLVQSGSELKKPGASVKVSCKASGYTFTYHGMDWVRQAPGQGLEWMGWINTYSGVPTYADDFKGRFVFSLDTSVSTAYLQISSLKAEDTAVYFCARRRDFTMDFWGQGTTVTVSS VL: NIVLTQSPDSLAVSLGERATINCKSSQSLLNSRTRKNYLAWFQQKPGQPPKLLIYWASTRESGVPDRFSGSGSGTDFTLTISSLQAEDVAVYYCKQSYTLRTFGGGTKVEIKR", "values": [{"measurement": "Kd", "setting": "[1]", "result": 0.617, "unit": "nM"}, {"measurement": "koff", "setting": "[1]", "result": 0.00215, "unit": "s⁻¹"}, {"measurement": "kon", "setting": "[1]", "result": "3.5e+06", "unit": "M⁻¹ s⁻¹"}]}, {"binder": "humanized 16B5 antibody, version H1L3 (antibody, V domains shown) VH: QVQLVQSGSELKKPGASVKVSCKASGYTFTYHGMDWVRQAPGQGLEWMGWINTYSGVPTYADDFKGRFVFSLDTSVSTAYLQISSLKAEDTAVYFCARRRDFTMDFWGQGTTVTVSS VL: DIVLTQSPDSLAVSLGERATINCKSSQSLLNSRTRKNYLAWFQQKPGQSPKLLIYWASTRESGVPDRFSGSGSGTDFTLTISSLQAEDVAVYYCKQSYTLRTFGGGTKVEIKR", "values": [{"measurement": "Kd", "setting": "[1]", "result": 0.32, "unit": "nM"}, {"measurement": "koff", "setting": "[1]", "result": 0.00398, "unit": "s⁻¹"}, {"measurement": "kon", "setting": "[1]", "result": "1.25e+07", "unit": "M⁻¹ s⁻¹"}]}, {"binder": "humanized 16B5 antibody, version H1L2 (antibody, V domains shown) VH: QVQLVQSGSELKKPGASVKVSCKASGYTFTYHGMDWVRQAPGQGLEWMGWINTYSGVPTYADDFKGRFVFSLDTSVSTAYLQISSLKAEDTAVYFCARRRDFTMDFWGQGTTVTVSS VL: NIVLTQSPDSLAVSLGERATINCKSSQSLLNSRTRKNYLAWFQQKPGQSPKLLIYWASTRESGVPDRFSGSGSGTDFTLTISSLQAEDVAVYYCKQSYTLRTFGGGTKVEIKR", "values": [{"measurement": "Kd", "setting": "[1]", "result": 0.286, "unit": "nM"}, {"measurement": "koff", "setting": "[1]", "result": 0.00342, "unit": "s⁻¹"}, {"measurement": "kon", "setting": "[1]", "result": "1.2e+07", "unit": "M⁻¹ s⁻¹"}]}, {"binder": "murine monoclonal anti-tau antibody 16B5 (antibody, V domains shown, Mouse monoclonal antibody; the isotype control used alongside it is IgG1; also called 16B5 monoclonal antibody; pan antibody 16B5) VH: QIQLVQSGPELKKPGETVKISCKASGYPFTYHGMDWVKQAPWGGLEWMGWINTYSGVPTYADDFKGRFAFSLETSVGTAYLQINNLKNEDTATYFCARRRDFTMDFWGQGTSVTVSS VL: NIVLSQSPSSLAVSPGEKVTMSCKSSQSLLNSRTRKNYLAWFQQKPGQSPKLLIYWASTRESGVPDRFTGSGSGTDFTLTISSVQAEDLAVYYCKQSYTLRTFGGGTNLEIKR", "values": [{"measurement": "binding result", "setting": "[2]", "result": "no binding (tested: 0.2 µg/mL)"}, {"measurement": "binding result", "setting": "[3]", "result": "no binding (tested: 0.2 µg/mL)"}, {"measurement": "binding result", "setting": "[4]", "result": "binds"}, {"measurement": "binding result", "setting": "[5]", "result": "binds"}, {"measurement": "binding result", "setting": "[6]", "result": "binds"}, {"measurement": "binding result", "setting": "[7]", "result": "binds"}, {"measurement": "binding result", "setting": "[8]", "result": "binds"}]}]}
